US20200230201A1 (CITY OF HOPE, published 2020)

Biological target: RELA (wild type) (UniProt Q04206 1-551)
Experiment: cell-based or functional assay

RELA (wild type), sequence (Q04206 whole entry): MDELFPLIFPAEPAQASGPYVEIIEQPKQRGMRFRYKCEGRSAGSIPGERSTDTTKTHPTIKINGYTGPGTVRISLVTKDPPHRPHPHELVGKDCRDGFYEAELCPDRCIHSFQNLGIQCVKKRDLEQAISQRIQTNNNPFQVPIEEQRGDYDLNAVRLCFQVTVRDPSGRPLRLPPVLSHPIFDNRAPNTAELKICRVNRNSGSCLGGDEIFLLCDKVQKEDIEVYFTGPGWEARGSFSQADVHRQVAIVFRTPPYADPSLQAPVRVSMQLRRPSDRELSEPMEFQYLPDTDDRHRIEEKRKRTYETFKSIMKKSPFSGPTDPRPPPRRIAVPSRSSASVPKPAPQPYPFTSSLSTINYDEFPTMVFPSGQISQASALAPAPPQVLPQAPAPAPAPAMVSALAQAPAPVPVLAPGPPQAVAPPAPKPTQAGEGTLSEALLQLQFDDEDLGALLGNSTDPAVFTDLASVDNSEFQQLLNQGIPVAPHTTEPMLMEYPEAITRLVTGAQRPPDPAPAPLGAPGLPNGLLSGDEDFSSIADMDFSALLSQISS

Binder | IL-8 promoter driven firefly luciferase (FFluc), dual luciferase assay, Ovcar4 cells [fold] | decrease in IL-8 promoter driven firefly luciferase (FFluc), dual luciferase assay, Ovcar4 cells [%]
TWIST1 (wild type, Myc-His tagged) (other, not shown: small tags and cut ends) MMQDVSSSPVSPADDSLSNSEEEPDRQQPPSGKRGGRKRRSSRRSAGGGAGPGGAAGGGVGGGDEPGSPAQGKRGKKSAGCGGGGGAGGGGGSSSGGGSPQSYEELQTQRVMANVRERQRTQSLNEAFAALRKIIPTLPSDKLSKIQTLKLAARYIDFLYQVLQSDELDSKMASCSYVAHERLSYAFSVWRMEGAWSMSASH | ~2 | 
TWIST1 E193A (other, not shown: small tags and cut ends) MMQDVSSSPVSPADDSLSNSEEEPDRQQPPSGKRGGRKRRSSRRSAGGGAGPGGAAGGGVGGGDEPGSPAQGKRGKKSAGCGGGGGAGGGGGSSSGGGSPQSYEELQTQRVMANVRERQRTQSLNEAFAALRKIIPTLPSDKLSKIQTLKLAARYIDFLYQVLQSDELDSKMASCSYVAHERLSYAFSVWRMAGAWSMSASH |  | ~50

More lines, now with the values ahead:

IL-8 promoter driven firefly luciferase (FFluc), dual luciferase assay, Ovcar4 cells [fold] | decrease in IL-8 promoter driven firefly luciferase (FFluc), dual luciferase assay, Ovcar4 cells [%] | Binder
 | ~50 | TWIST1 R191A (other, not shown: small tags and cut ends) MMQDVSSSPVSPADDSLSNSEEEPDRQQPPSGKRGGRKRRSSRRSAGGGAGPGGAAGGGVGGGDEPGSPAQGKRGKKSAGCGGGGGAGGGGGSSSGGGSPQSYEELQTQRVMANVRERQRTQSLNEAFAALRKIIPTLPSDKLSKIQTLKLAARYIDFLYQVLQSDELDSKMASCSYVAHERLSYAFSVWAMEGAWSMSASH
 | ~50 | TWIST1 W190A (other, not shown: small tags and cut ends) MMQDVSSSPVSPADDSLSNSEEEPDRQQPPSGKRGGRKRRSSRRSAGGGAGPGGAAGGGVGGGDEPGSPAQGKRGKKSAGCGGGGGAGGGGGSSSGGGSPQSYEELQTQRVMANVRERQRTQSLNEAFAALRKIIPTLPSDKLSKIQTLKLAARYIDFLYQVLQSDELDSKMASCSYVAHERLSYAFSVARMEGAWSMSASH
